Literature values in article PMC3034196.

Target: alkaline protease (Pseudomonas aeruginosa) (UniProt Q03023)
Chain of UniProt Q03023 (Q03023 10-479): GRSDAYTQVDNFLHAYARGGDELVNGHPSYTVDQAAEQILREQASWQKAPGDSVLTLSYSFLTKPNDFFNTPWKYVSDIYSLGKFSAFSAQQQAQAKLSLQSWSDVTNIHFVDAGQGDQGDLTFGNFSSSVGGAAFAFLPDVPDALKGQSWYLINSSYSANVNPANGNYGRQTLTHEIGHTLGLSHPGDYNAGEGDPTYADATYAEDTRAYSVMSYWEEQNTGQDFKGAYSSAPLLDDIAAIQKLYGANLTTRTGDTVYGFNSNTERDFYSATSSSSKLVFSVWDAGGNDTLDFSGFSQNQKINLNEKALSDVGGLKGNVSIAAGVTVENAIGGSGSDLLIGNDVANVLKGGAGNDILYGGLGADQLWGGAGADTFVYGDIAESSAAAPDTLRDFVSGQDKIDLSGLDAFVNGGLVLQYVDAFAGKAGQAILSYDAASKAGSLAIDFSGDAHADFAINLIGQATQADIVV

Substance: APRin (alkaline protease inhibitor) (from UniProt Q03026)
- Kd: 4 pM
